What was measured:
Experiment in all cases: fluorescence polarisation
[1] = target: G9aK185me3 peptide (fluorescence polarization)
[2] = target: H3 peptide dimethylated on lysine 9 (fluorescence polarization)
[3] = target: H3K9me3 peptide (fluorescence polarization)

Kd [1]: 8 µM
fold weaker than with the H3K9me3 peptide [2]: 1.5 fold
Kd [3]: 2 µM
B1: hCDYL1b chromodomain (1–78 aa) (domain or fragment)
chain: MASEELYEVERIVDKRKNKKGKTEYLVRWKGYDSEDDTWEPEQHLVNCEEYIHDFNRRHTEKQKESTLTRTNRTSPNN

From article PMC2787366
